Data taken from article PMC4493074.

Target: CD31 (PECAM-1) (Homo sapiens) (UniProt P16284)
Conditions: 5-(N-naphthylcarboxyamide)-2'-deoxyuridine (NapdU) replaces dT; SOMAmer; Flow cytometry: 1x PBS (pH 7.4), 2% FBS, 5 mM MgCl2, 0.2 mM dextran sulfate, room temperature, 15 min; aptamers heated at 95 C 5 min and cooled; Kd assay …

Sequence of UniProt P16284 (P16284 28-601): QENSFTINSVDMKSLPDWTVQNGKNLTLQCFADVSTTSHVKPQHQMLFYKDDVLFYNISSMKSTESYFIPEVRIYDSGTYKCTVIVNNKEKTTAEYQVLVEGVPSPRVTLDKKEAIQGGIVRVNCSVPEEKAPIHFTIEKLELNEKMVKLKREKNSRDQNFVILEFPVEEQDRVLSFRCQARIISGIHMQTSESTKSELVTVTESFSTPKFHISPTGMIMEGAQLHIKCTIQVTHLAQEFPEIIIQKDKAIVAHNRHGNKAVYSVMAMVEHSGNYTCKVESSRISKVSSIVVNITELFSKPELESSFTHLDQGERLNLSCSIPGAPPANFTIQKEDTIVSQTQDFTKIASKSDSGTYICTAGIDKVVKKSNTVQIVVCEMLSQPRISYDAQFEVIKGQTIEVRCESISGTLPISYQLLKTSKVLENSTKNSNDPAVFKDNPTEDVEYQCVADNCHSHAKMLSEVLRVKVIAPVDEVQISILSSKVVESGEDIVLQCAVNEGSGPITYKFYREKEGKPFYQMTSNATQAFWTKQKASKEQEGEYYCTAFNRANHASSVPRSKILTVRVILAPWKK

## TCAGCCGCCAGCCAGTTCGUAGAGGAGGUACGUAAUGUCUGGGUAUACCCCGAUAAUUGACCAGAGCACCACAGAG [AT-1 (CD31 aptamer clone 1)]
  Kd: 2.28 nM
